Target: full length MIC-1 receptor (hGFRAL) and its full signaling co-receptor hRET51, stably expressed in BHK21 cells (human, UniProt Q6UXV0 19-394; P07949 29-1114)
Test: cell-based or functional assay

Sequence of full length MIC-1 receptor (hGFRAL) and its full signaling co-receptor hRET51, stably expressed in BHK21 cells (Q6UXV0 19-394, chain 1 of 2): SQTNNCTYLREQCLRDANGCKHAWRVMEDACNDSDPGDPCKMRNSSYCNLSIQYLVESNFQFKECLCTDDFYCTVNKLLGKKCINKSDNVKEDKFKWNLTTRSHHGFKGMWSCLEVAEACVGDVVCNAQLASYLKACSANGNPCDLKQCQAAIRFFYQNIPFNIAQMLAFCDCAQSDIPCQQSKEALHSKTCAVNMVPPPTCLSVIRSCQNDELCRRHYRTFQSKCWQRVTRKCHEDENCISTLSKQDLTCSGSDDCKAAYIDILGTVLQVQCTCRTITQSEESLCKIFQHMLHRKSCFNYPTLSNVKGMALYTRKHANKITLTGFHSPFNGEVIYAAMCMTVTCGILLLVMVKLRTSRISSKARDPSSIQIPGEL
Sequence of full length MIC-1 receptor (hGFRAL) and its full signaling co-receptor hRET51, stably expressed in BHK21 cells (P07949 29-1114, chain 2 of 2): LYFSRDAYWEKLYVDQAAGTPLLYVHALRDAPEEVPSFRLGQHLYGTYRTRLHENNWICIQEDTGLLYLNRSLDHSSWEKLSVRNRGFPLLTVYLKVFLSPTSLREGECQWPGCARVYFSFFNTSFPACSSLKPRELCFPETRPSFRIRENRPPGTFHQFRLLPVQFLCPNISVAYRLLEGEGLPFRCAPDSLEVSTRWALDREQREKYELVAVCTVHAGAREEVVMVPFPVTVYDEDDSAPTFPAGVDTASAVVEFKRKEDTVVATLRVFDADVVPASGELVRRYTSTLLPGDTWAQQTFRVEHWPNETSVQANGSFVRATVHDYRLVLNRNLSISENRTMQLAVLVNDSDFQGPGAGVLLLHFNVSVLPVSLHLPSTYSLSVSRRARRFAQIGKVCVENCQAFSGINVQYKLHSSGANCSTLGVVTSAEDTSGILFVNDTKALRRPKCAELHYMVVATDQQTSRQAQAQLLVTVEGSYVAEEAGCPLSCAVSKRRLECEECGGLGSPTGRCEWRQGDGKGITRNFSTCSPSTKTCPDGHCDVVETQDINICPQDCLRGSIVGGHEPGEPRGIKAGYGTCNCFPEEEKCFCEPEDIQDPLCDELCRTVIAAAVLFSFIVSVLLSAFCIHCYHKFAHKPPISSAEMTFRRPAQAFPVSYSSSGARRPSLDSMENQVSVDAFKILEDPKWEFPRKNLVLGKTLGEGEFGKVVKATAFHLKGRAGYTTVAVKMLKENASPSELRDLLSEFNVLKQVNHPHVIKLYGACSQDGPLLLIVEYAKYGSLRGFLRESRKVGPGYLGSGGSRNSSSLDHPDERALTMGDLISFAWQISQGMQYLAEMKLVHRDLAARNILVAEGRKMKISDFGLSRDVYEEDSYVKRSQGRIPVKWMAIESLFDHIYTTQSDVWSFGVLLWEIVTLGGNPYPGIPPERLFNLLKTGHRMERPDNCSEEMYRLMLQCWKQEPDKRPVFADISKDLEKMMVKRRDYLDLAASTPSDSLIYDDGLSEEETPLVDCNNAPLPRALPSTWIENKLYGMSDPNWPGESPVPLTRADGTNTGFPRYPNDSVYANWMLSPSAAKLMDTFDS

Emax: 100%
B1: MIC-1 (SEQ ID NO: 1) (ligand)
chain: ARNGDHCPLGPGRCCRLHTVRASLEDLGWADWVLSPREVQVTMCIGACPSQFRAANMHAQIKTSLHRLKPDTVPAPCCVPASYNPMVLIQKTDTGVSLQTYDDLLAKDCHCI

From patent publication US20230364248A1 (Novo Nordisk, published 2023)
